Patent publication US20190381086A1, “INHIBITION OF NEDDYLATION USING GLYCYL-tRNA SYNTHETASE INHIBITORS” (The Scripps Research Institute, priority 2015, published 2019)

Columns and labels:
[1] = molecular target: N-terminal GST-tagged GlyRS (human) (UniProt P41250); assay: biolayer interferometry (Octet), GlyRS immobilized
[2] = molecular target: N-terminal GST-tagged GlyRS (human) (UniProt P41250); assay: biolayer interferometry (Octet), GlyRS immobilized, 30°C

Sequence of N-terminal GST-tagged GlyRS (human) (P41250 55-739): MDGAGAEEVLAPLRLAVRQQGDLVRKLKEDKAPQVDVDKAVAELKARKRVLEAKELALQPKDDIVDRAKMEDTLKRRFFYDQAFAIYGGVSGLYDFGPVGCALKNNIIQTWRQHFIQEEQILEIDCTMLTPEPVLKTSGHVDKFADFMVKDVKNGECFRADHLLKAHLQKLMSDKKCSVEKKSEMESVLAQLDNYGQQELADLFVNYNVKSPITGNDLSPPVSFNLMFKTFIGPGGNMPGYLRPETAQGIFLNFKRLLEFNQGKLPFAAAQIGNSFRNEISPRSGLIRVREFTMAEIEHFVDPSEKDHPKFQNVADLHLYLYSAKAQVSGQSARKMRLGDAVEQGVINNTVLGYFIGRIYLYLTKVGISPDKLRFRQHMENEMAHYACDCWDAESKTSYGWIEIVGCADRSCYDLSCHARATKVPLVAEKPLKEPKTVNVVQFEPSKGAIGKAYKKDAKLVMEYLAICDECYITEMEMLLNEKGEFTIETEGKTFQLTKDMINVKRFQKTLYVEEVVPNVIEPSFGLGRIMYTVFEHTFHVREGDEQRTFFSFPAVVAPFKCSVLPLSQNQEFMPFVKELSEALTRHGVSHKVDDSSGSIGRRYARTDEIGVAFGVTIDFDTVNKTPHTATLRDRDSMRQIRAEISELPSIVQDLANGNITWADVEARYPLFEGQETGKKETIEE

- fold stronger than the Kd for NEDD8 alone [1]: 30 fold
- fold stronger than the Kd for Ubc12 alone [1]: 100 fold
- Kd [2]: 4.09 nM
Substance: Ubc12^N8: NEDD8-conjugated Ubc12 (C111S, stable ester linkage to His-SUMO-tagged NEDD8) (from UniProt P61081 1-183; Q15843 1-76)
